Measured values as given in paper PMC4974056, “The proposed channel-enzyme transient receptor potential melastatin 2 does not possess ADP ribose hydrolase activity” (eLife, 2016).
Several values for one entry are separate records, joined by “and”; a condition that tells them apart may be missing. Equal values may be shown once. Read-outs that look alike come from different tables or passages of the source.

Assays:
[1] = Enzymatic (ADPRase) activity assay using thin-layer chromatography (TLC); type: biochemical; details: for ADPRase activity (conversion of ADPR into AMP and R5P, TLC): 1 μM protein, 16 mM Mg2+, 2-hr incubation, pH 6.5, 7.1 and 8.5, absence or presence of 100 mM NaCl; for ADPRase activity (conversion of ADPR into AMP and R5P, TLC) / kcat: 10 mM ADPR, room temperature; for Enzyme: Table 1 summary of ADPRase activity; for kcat: 0.5 μM protein
Description: (§1) ADPRase activities of mitochondrial NUDT9, NUDT9H, and the purified chimeric constructs (Chi2, Chi3S, Chi4S) were quantitated by densitometric detection of the AMP product on TLC sheets. The 20-μl reaction mixtures contained 0.1, 0.5 or 1 μM purified protein, 10 mM Na-ADPR (Sigma-Aldrich, St. Louis, MO, USA), 16 mM MgCl2, and 50 mM reaction buffer (RB). The reaction buffers used were: 50 mM MES, pH 6.5 with NaOH (RB1); 50 mM HEPES, pH 7.1 with NaOH (RB2); 50 mM Tris, pH 8.5 with HCl (RB3); RB1 + 100 mM NaCl (RB4); RB2 + 100 mM NaCl (RB5), and RB3 + 100 mM NaCl (RB6). For the enzyme kinetics experiments on NUDT9 and Chi2, aliquots from the reaction mixtures were collected at the indicated time points; 3 independent experiments were performed for both proteins and each condition, and data are presented as mean ± SEM. All incubations were at room temperature (~25°C). For TLC, 1-μl aliquots of reaction mixtures were placed on Polygram SIL G/UV254 plates (Macherey-Nagel, Düren, Germany), dried and developed in 0.2 M NH4HCO3 in ethanol:water 7:3 (vol/vol). Nucleotides were visualized under UV light. Densitometry of nucleotide intensities was done using ImageJ software.

[2] = Enzymatic activity assay using colorimetric detection of inorganic phosphate (Pi assay, coupled to alkaline phosphatase); type: biochemical; details: 5 or 50 nM protein co-applied with 1 mM ADPR and AP, 30 min, pH 6.5-9.0, 37°C or RT
Description: The ADPRase activities of the same proteins were additionally tested with a more sensitive assay based on colorimetric detection of Pi (Pi assay) liberated from both ADPRase products AMP and R5P by co-applied alkaline phosphatase (AP) ([Rafty et al., 2002]). AP liberates Pi from AMP and R5P, but not from intact ADPR: thus, Pi is produced from hydrolyzed ADPR at a molar ratio of 1:2. In brief, 150-μl reaction volumes containing 5 or 50 nM purified protein, 5–6 U bovine AP, 1 mM Na-ADPR, 16 mM MgCl2, and 50 mM reaction buffer at various pH values (MES 6.5, HEPES 7.1, Tris 8.5, and Tris 9.0) were incubated for 30 min at either 37°C or room temperature. The reaction was stopped and Pi visualized by adding 850 μl coloring solution (6:1 vol/vol ratio mixture of 0.42% ammonium molybdate tetrahydrate in 1N H2SO4 and 10% L-ascorbic acid) followed by incubation for 20 min at 45°C. Optical density was then measured at 820 nm (NanoPhotometer P300, Implen GmbH, Munich, Germany). Coloring solution was freshly made, and standard curve (0.050–2 mM KH2PO4) obtained, daily. […]
Molecular turnover rates (kcat) for NUDT9 were calculated from the [Pi] released in samples containing 5 nM NUDT9, in which [ADPR] remained >0.9 mM (i.e., saturating [[Perraud et al., 2003]]) throughout the 30-min incubation period, using the equation kcat = 0.5[Pi]released/5 nM/1800 s.

[3] = Solubility of recombinant proteins expressed in E.coli; type: physicochemical; details: for Soluble: expressed in E.coli, Table 1
Description: The soluble proteins (NUDT9 and Chi2) were expressed and purified as previously described for mitochondrial NUDT9 ([Tóth et al., 2014]). In brief, bacterial cultures were grown at 37°C in Luria-Bertani medium supplemented with the appropriate antibiotic and induced with 1 mM isopropyl-β-D-1-thiogalactopyranoside (IPTG) upon reaching OD600 of ~0.7. After 3 hr of incubation, cells were harvested and lysed with sonication in 20 mM Tris (pH 8.5 with HCl) / 200 mM NaCl. The cleared supernatant was incubated with Ni-Sepharose 6 Fast Flow resin (GE Healthcare Hungary, Hungary) for 3 hr under gentle rotation. The resin was then washed with lysis buffer supplemented with 20 mM imidazole, and the protein eluted with a buffer containing 20 mM Tris (pH 8.5 with HCl), 100 mM NaCl, and 400 mM imidazole.
Chi3S, Chi4S and NUDT9H were little soluble to insoluble when expressed at 37°C, the majority of the proteins ending up in inclusion bodies, but gave tractable (~1–5%) soluble fractions when induced with 0.1 mM IPTG at 25°C overnight. NUDT9H was then purified as NUDT9. Chi3S and Chi4S were purified using Strep-Tactin chromatography following the manufacturer’s instructions (IBA GmbH, Göttingen, Germany).

[4] = set-up: method as in Perraud et al., 2001, 2003; details: ref Perraud et al., 2001, 2003, cited from earlier work
[5] = target: T1, T5L-TRPM2 (Homo sapiens, UniProt O94759, G984L/INS985E/Y985D); test: Excised inside-out patch-clamp recordings, ADPR-dependent channel activation; type: cell-based
T1 sequence (O94759 whole entry, stated change not applied): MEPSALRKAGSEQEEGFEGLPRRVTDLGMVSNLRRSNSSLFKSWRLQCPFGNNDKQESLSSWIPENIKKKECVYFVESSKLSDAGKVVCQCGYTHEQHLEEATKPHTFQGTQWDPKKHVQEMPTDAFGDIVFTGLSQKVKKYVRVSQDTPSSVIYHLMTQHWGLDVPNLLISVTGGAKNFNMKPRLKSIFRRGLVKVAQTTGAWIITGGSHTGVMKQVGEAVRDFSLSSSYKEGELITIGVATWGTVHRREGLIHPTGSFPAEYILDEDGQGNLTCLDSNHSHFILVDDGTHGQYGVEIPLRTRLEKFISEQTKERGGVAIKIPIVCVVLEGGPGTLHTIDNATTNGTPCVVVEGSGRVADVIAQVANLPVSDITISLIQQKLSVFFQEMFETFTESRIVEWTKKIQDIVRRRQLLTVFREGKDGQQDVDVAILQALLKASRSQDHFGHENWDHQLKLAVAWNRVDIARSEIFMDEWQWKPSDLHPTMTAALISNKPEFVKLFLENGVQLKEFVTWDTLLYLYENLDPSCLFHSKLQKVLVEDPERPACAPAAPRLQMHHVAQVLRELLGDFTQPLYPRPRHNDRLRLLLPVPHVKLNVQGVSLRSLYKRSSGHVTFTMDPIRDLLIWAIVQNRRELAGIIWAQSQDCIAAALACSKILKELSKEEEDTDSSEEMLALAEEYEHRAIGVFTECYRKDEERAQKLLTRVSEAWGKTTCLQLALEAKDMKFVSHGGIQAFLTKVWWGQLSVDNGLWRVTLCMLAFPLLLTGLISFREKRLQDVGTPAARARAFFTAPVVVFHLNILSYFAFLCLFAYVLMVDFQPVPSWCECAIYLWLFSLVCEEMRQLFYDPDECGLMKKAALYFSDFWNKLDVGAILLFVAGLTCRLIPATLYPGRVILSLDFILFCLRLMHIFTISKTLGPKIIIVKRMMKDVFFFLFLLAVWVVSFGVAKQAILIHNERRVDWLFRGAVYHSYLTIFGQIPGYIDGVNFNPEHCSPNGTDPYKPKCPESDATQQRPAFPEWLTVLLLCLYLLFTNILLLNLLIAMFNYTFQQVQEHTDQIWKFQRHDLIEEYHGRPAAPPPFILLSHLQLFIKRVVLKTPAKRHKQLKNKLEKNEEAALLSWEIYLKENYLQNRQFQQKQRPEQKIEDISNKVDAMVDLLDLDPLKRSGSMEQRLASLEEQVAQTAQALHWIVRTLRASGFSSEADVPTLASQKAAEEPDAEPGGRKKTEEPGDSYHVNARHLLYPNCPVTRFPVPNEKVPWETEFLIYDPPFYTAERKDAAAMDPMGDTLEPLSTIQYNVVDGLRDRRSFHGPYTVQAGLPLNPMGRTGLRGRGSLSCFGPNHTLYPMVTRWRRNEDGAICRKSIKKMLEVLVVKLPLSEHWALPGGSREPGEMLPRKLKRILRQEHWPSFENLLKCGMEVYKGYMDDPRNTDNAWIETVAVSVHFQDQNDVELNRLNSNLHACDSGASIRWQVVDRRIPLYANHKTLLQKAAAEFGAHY
Description: (§2) Oocytes isolated from anaesthetized Xenopus laevis were digested with collagenase, injected with 10–70 ng cRNA, and stored at 18°C. Recordings were done 2–3 days after injection.
The tip of the patch pipette was filled to ~1 cm height with 140 mM Na-gluconate, 2 mM Mg-gluconate2, 10 mM HEPES (pH 7.4 with NaOH); free [Ca^2+] ~4 μM. The pipette electrode was placed into a 140-mM NaCl-based solution carefully layered on top. Bath solution contained 140 mM Na-gluconate, 2 mM Mg-gluconate2, 10 mM HEPES (pH 7.1 with NaOH), and either 1 mM EGTA (to obtain 'zero' (~8 nM) Ca^2+) or 1 mM Ca-gluconate2 (to obtain 125 μM free Ca^2+) ([Csanády and Törocsik, 2009]). Na-ADPR was used at final concentrations of 0.32, 1, 3.2, 10, 32, 100, or 1000 μM, and the Na^+ salt of ε-ADPR at 100 μM. Macroscopic TRPM2 currents were recorded at 25°C at a membrane potential of −20 mV. Currents were amplified, filtered at 2 kHz (Axopatch 200B), digitized at 10 kHz (Digidata 1322A), and stored to disk (Pclamp9, Molecular Devices, Sunnyvale, CA, USA).
Dose dependence of ADPR-induced current activation, expressed as the ratio of mean macroscopic currents observed in the presence of various test [ADPR] (I) and 32 (or 100) μM ADPR (Imax) in the same patch, was fitted to the Hill equation (I/Imax = [ADPR]^n/(K^n+[ADPR]^n). Dose dependence of ADPR-activation in the presence of 100 μM ε-ADPR was expressed as the ratio of the currents observed in the presence of various test [ADPR] + 100 μM ε-ADPR (I) and 100 μM ADPR alone (Imax) in the same patch, and was fitted to the Hill equation substituting K' = K(1+[ε-ADPR]/KI) instead of K (K and n fixed to their control values). Macroscopic current decay time courses following removal of ADPR or Ca^2+ were fitted by single exponentials using the method of least squares.

[6] = target: T5L-TRPM2-Chi2 (Homo sapiens, UniProt O94759+Q9BW91, G984L/INS985E/Y985D, form not given); test: as above; type: cell-based; details: current in 1 μM ADPR divided by that in 32 μM ADPR; compared to TRPM2
T5L-TRPM2-Chi2, sequence (O94759 1-1353, stated change not applied, one chain of several): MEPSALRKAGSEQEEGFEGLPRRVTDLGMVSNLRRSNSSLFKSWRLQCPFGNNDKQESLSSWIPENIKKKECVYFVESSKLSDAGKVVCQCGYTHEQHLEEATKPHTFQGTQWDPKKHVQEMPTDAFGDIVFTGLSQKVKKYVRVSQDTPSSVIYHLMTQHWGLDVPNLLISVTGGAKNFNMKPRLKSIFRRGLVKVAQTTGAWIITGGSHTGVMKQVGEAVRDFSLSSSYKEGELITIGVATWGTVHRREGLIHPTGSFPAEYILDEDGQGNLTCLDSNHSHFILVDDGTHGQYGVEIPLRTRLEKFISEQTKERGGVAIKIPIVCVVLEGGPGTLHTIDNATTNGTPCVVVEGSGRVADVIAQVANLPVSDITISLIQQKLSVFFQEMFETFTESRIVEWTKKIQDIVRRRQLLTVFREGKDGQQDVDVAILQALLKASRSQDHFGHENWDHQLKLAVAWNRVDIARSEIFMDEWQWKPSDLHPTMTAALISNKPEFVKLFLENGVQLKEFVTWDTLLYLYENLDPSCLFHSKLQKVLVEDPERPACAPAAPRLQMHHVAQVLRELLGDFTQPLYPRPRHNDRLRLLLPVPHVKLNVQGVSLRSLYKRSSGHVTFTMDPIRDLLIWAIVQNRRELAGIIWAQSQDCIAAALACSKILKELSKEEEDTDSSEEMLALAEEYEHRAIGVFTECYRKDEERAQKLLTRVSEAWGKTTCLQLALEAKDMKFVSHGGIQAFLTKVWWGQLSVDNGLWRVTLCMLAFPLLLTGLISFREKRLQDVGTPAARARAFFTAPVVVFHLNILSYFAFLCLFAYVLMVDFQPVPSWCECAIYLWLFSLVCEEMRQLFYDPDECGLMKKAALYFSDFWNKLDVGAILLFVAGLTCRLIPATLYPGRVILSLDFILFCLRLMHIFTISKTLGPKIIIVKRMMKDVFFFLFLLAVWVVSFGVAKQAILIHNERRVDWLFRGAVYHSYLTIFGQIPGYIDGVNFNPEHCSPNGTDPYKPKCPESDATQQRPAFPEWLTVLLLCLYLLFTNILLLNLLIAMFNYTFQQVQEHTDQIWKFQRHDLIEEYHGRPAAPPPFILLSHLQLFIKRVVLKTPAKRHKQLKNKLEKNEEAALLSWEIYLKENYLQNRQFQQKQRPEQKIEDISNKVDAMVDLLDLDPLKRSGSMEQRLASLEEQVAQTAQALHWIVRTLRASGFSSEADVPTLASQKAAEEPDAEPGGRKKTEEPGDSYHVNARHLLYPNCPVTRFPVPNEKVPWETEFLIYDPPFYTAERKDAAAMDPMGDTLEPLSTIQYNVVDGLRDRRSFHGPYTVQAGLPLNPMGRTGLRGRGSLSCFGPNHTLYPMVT
Text: The noninactivating TRPM5-like pore mutant of TRPM2 (T5L-TRPM2) was contained in the pGEMHE vector ([Tóth and Csanády, 2012]). The NUDT9H domain of TRPM2 was replaced by Chi2A, Chi3 or Chi4 using the native BlpI-site upstream of the domain and an XbaI-site downstream of the Stop-codon in each chimeric construct. Single-base mutations to generate Stop-codons immediately upstream of the hexahistidine tags of Chi3 and Chi4 were then introduced (QuickChange II, Agilent Technologies, Santa Clara, CA, USA), yielding TRPM2-Chi3 and TRPM2-Chi4; TRPM2-Chi2 lacked a His-tag because it was derived from Chi2A.
as §2
The tip of the patch pipette was filled to ~1 cm height with 140 mM Na-gluconate, 2 mM Mg-gluconate2, 10 mM HEPES (pH 7.4 with NaOH); free [Ca^2+] ~4 μM. The pipette electrode was placed into a 140-mM NaCl-based solution carefully layered on top. […] Macroscopic TRPM2 currents were recorded at 25°C at a membrane potential of −20 mV. […]
Dose dependence of ADPR-induced current activation, expressed as the ratio of mean macroscopic currents observed in the presence of various test [ADPR] […]

[7] = Spontaneous ADPR degradation at basic pH (TLC and Pi assay, no ADPRase); type: physicochemical
Description: as §1
The ADPRase activities of the same proteins were additionally tested with a more sensitive assay based on colorimetric detection of Pi (Pi assay) liberated from both ADPRase products AMP and R5P by co-applied alkaline phosphatase (AP) ([Rafty et al., 2002]). AP liberates Pi from AMP and R5P, but not from intact ADPR: thus, Pi is produced from hydrolyzed ADPR at a molar ratio of 1:2. In brief, 150-μl reaction volumes containing 5 or 50 nM purified protein, 5–6 U bovine AP, 1 mM Na-ADPR, 16 mM MgCl2, and 50 mM reaction buffer at various pH values (MES 6.5, HEPES 7.1, Tris 8.5, and Tris 9.0) were incubated for 30 min at either 37°C or room temperature. The reaction was stopped and Pi visualized by adding 850 μl coloring solution (6:1 vol/vol ratio mixture of 0.42% ammonium molybdate tetrahydrate in 1N H2SO4 and 10% L-ascorbic acid) followed by incubation for 20 min at 45°C. Optical density was then measured at 820 nm (NanoPhotometer P300, Implen GmbH, Munich, Germany). Coloring solution was freshly made, and standard curve (0.050–2 mM KH2PO4) obtained, daily. Reactions with 1 mM AMP or R5P (instead of ADPR) served as positive controls. All reagents were from Sigma-Aldrich.

[8] = target: T1, T5L-TRPM2; set-up: method as in Tóth and Csanády, 2012; details: previously established; ref Tóth and Csanády, 2012; read-out: half-saturating concentration; cited from earlier work

Molecule: NUDT9H: isolated C-terminal cytosolic NUDT9-homology domain of TRPM2, recombinant, hexahistidine tag
- ADPRase activity (conversion of ADPR into AMP and R5P, TLC) [1]: failed to hydrolyze the nucleotide
- Enzyme [1]: No
- Pi release [2]: did not result in any significant Pi release
- stability of purified soluble preparation ([3]; 4°C): precipitated overnight at 4 °C
- Soluble [3]: No^¶
- reported turnover rate ([4]; isolated NUDT9H): ~ 0.1 s^-1
- kcat ([4]; pH 9 and 37°C): ~ 0.06 s^-1
- reported enzymatic activity, lower than that of NUDT9 [4]: about 100 fold

Molecule: Nc1ncnc2c1ncn2C1OC(COP(=O)(O)OP(=O)(O)OCC2OC(O)C(O)C2O)C(O)C1O (centres unmarked) [ADPR, adenosine 5'-diphosphoribose]
- n (Hill slope for ADPR binding) ([5]; Figure 8B): 1.3±0.1
- EC50 ([5]; inside-out patches from Xenopus laevis oocytes, saturating Ca2+, −20 mV, Hill fit (Figure 7H), read-out: K1/2 for ADPR-induced current activation): 1300 ± 100 nM
- Fractional activation by 1 μM ADPR [6]: reduced
- spontaneous hydrolysis of applied ADPR (Pi assay) ([7]; 1 mM ADPR, 30 min, with AP, with or without Chi4S or NUDT9H): ~ 1%
- spontaneous degradation ([7]; 25°C and pH 8.5, 20 min): ~ 0.3%
- time constant for spontaneous ADPR hydrolysis ([7]; 25°C and pH 8.5, assuming exponential decay): ~ 100 hr
- decay time constant of spontaneous degradation ([7]; 25°C, pH 8.5): about 100 h
- spontaneous degradation ([7]; 25°C, pH 8.5, 2 hr): ~ 2%
- ADPR degraded spontaneously ([7]; 25°C, pH 8.5, 24 hr): ~ 20%
- spontaneous degradation ([7]; 37°C and pH 9, 30 min): ~ 1%
- AMP which forms spontaneously ([7]; 20 min, pH 8.5, 10 mM ADPR): ~ 30 μM
- stability ([7]; neutral or slightly acidic pH): inherently stable
- EC50 [8]: 1000 nM

B1: NUDT9: soluble, Mg2+-dependent mitochondrial ADPR pyrophosphatase, recombinant, C-terminal hexahistidine tag (protein)
chain: ENSHNKARTSPYPGSKVERSQVPNEKVGWLVEWQDYKPVEYTAVSVLAGPRWADPQISESNFSPKFNEKDGHVERKSKNGLYEIENGRPRNPAGRTGLVGRGLLGRWGPNHAADPIITRWKRDSSGNKIMHPVSGKHILQFVAIKRKDCGEWAIPGGMVDPGEKISATLKREFGEEALNSLQKTSAEKREIEEKLHKLFSQDHLVIYKGYVDDPRNTDNAWMETEAVNYHDETGEIMDNLMLEAGDDAGKVKWVDINDKLKLYASHSQFIKLVAEKRDAHWSEDSEADCHAL
modifications: left off: His6, C-terminal, kept
notes: soluble, Mg2+-dependent mitochondrial ADPR pyrophosphatase, recombinant, C-terminal hexahistidine tag
- ADPRase activity (conversion of ADPR into AMP and R5P, TLC) [1]: active ADPRases
- decrease of kcat from pH 8.5 to 6.5 ([1]; TLC kinetics): ~ 1.4 fold
- Enzyme [1]: Yes
- kcat ([1]; pH 6.5 (RB1)): 6.4 s⁻¹
- kcat ([1]; pH 7.1 (RB2)): 7.6 s⁻¹
- kcat ([1]; pH 8.5 (RB3)): 9 s⁻¹ and 9.0 s⁻¹
- Soluble [3]: Yes
- kcat ([4]; previously reported values): ~ 8 s^-1
